Holding throughout (type): binding
A short description of test [1]: Probe fluorescence ratio response to arachidonic acid relative to ADIFAB2. Conditions: Arachidonic acid; response relative to ADIFAB2. An outline of the steps:
(§1)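 Each fatty acid's response was expressed relative to ADIFAB2, the rI-FABP-L72A probe, as ΔR/ΔRreference. ΔR is the change in the background-corrected two-wavelength intensity ratio R=Fλ1/Fλ2 from its analyte-free baseline R0. Emission was read near about 420-480 nm for unbound and about 495-580 nm for FFA-bound probe.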

Test [2] is described as follows: Probe fluorescence ratio response to linolenic acid relative to ADIFAB2. Conditions: response relative to ADIFAB2. An outline of the steps:
as §1

Test [3] can be described thus: Probe fluorescence ratio response to linoleic acid relative to ADIFAB2. Conditions: response relative to ADIFAB2. An outline of the steps:
as §1

Test [4] is described as follows: Probe fluorescence ratio response to oleic acid relative to ADIFAB2. Conditions: response relative to ADIFAB2. An outline of the steps:
as §1

Test [5] in a line: Probe fluorescence ratio response to palmitic acid relative to ADIFAB2. Conditions: response relative to ADIFAB2. An outline of the steps: as §1

B1: 51Y1, 72A (protein, listed as Rattus norvegicus)
chain: AFDGTWKVDRNENYEKFMEKMGINVVKRKLGAHDNLKLTITQEGNKFTVKYSSNFRNIDVVFELGVDFAYSAADGTELTGTWTMEGNKLVGKFKRVDNGKELIAVREISGNELIQTYTYEGVEAKRIFKKE
modifications: PEPTIDE (1)...(131) wild-type rat intestinal fatty acid binding protein
On to B1, for which the “DR/DR AA” value in test [1] is 1.38. The “DR/DR LNA” value in test [2] was found to be 1.44. Further, the “DR/DR LA” value in test [3] worked out at 1.50. Moreover, the “DR/DR OA” value in test [4] turned out to be 1.38. Besides, the “DR/DR PA” value in test [5] is 0.72.

B2: 55K1, 72A (protein, listed as Rattus norvegicus)
chain: AFDGTWKVDRNENYEKFMEKMGINVVKRKLGAHDNLKLTITQEGNKFTVKESSNKRNIDVVFELGVDFAYSAADGTELTGTWTMEGNKLVGKFKRVDNGKELIAVREISGNELIQTYTYEGVEAKRIFKKE
modifications: PEPTIDE (1)...(131) wild-type rat intestinal fatty acid binding protein
On to B2, for which the “DR/DR AA” value in test [1] was 0.32. Besides, the “DR/DR LNA” value in test [2] was found to be 0.35. Further, the “DR/DR LA” value in test [3] came to 0.34. In test [4], the “DR/DR OA” value is 0.30. Besides, the “DR/DR PA” value in test [5] stood at 0.27.

B3: 55R1, 72A (protein, listed as Rattus norvegicus)
chain: AFDGTWKVDRNENYEKFMEKMGINVVKRKLGAHDNLKLTITQEGNKFTVKESSNRRNIDVVFELGVDFAYSAADGTELTGTWTMEGNKLVGKFKRVDNGKELIAVREISGNELIQTYTYEGVEAKRIFKKE
modifications: PEPTIDE (1)...(131) wild-type rat intestinal fatty acid binding protein
For the molecule B3, the “DR/DR AA” value in test [1] is reported as 0.40. In addition, the “DR/DR LNA” value in test [2] is listed as 0.37. Also, the “DR/DR LA” value in test [3] was 0.41. Moreover, in test [4], the “DR/DR OA” value is 0.39. Besides, in test [5], the “DR/DR PA” value is given as 0.30.

B4: 55I1, 72A (protein, listed as Rattus norvegicus)
chain: AFDGTWKVDRNENYEKFMEKMGINVVKRKLGAHDNLKLTITQEGNKFTVKESSNIRNIDVVFELGVDFAYSAADGTELTGTWTMEGNKLVGKFKRVDNGKELIAVREISGNELIQTYTYEGVEAKRIFKKE
modifications: PEPTIDE (1)...(131) wild-type rat intestinal fatty acid binding protein
Turning to B4, in test [1], the “DR/DR AA” value is reported as 1.08. Besides, the “DR/DR LNA” value in test [2] was 0.89. In addition, the “DR/DR LA” value in test [3] came to 0.83. In test [4], the “DR/DR OA” value came out at 0.90. Further, the “DR/DR PA” value in test [5] is 0.77.

B5: 55M1, 72A (protein, listed as Rattus norvegicus)
chain: AFDGTWKVDRNENYEKFMEKMGINVVKRKLGAHDNLKLTITQEGNKFTVKESSNMRNIDVVFELGVDFAYSAADGTELTGTWTMEGNKLVGKFKRVDNGKELIAVREISGNELIQTYTYEGVEAKRIFKKE
modifications: PEPTIDE (1)...(131) wild-type rat intestinal fatty acid binding protein
With B5, in test [1], the “DR/DR AA” value was 1.40. Also, in test [2], the “DR/DR LNA” value was found to be 1.42. In test [3], the “DR/DR LA” value was 0.97. Further, the “DR/DR OA” value in test [4] is 1.41. The “DR/DR PA” value in test [5] is 0.84.

B6: 55Q1, 72A (protein, listed as Rattus norvegicus)
chain: AFDGTWKVDRNENYEKFMEKMGINVVKRKLGAHDNLKLTITQEGNKFTVKESSNQRNIDVVFELGVDFAYSAADGTELTGTWTMEGNKLVGKFKRVDNGKELIAVREISGNELIQTYTYEGVEAKRIFKKE
modifications: PEPTIDE (1)...(131) wild-type rat intestinal fatty acid binding protein
For the molecule B6, the “DR/DR AA” value in test [1] is listed as 0.60. Besides, in test [2], the “DR/DR LNA” value amounted to 0.49. Also, in test [3], the “DR/DR LA” value is recorded as 0.47. Besides, the “DR/DR OA” value in test [4] was 0.54. Also, the “DR/DR PA” value in test [5] is listed as 0.43.

B7: 55G1, 72A (protein, listed as Rattus norvegicus)
chain: AFDGTWKVDRNENYEKFMEKMGINVVKRKLGAHDNLKLTITQEGNKFTVKESSNGRNIDVVFELGVDFAYSAADGTELTGTWTMEGNKLVGKFKRVDNGKELIAVREISGNELIQTYTYEGVEAKRIFKKE
modifications: PEPTIDE (1)...(131) wild-type rat intestinal fatty acid binding protein
Consider B7, for which, in test [1], the “DR/DR AA” value stood at 0.19. Besides, the “DR/DR LNA” value in test [2] came to 0.23. Also, in test [3], the “DR/DR LA” value is given as 0.22. Also, the “DR/DR OA” value in test [4] is listed as 0.19. Further, the “DR/DR PA” value in test [5] stood at 0.18.

B8: 55D1, 72A (protein, listed as Rattus norvegicus)
chain: AFDGTWKVDRNENYEKFMEKMGINVVKRKLGAHDNLKLTITQEGNKFTVKESSNDRNIDVVFELGVDFAYSAADGTELTGTWTMEGNKLVGKFKRVDNGKELIAVREISGNELIQTYTYEGVEAKRIFKKE
modifications: PEPTIDE (1)...(131) wild-type rat intestinal fatty acid binding protein
With B8, the “DR/DR AA” value in test [1] was determined as 0.11. Further, in test [2], the “DR/DR LNA” value amounted to 0.12. For the same molecule, the “DR/DR LA” value in test [3] is 0.12. The “DR/DR OA” value in test [4] amounted to 0.10. The “DR/DR PA” value in test [5] is 0.10.

B9: 55P1, 72A (protein, listed as Rattus norvegicus)
chain: AFDGTWKVDRNENYEKFMEKMGINVVKRKLGAHDNLKLTITQEGNKFTVKESSNPRNIDVVFELGVDFAYSAADGTELTGTWTMEGNKLVGKFKRVDNGKELIAVREISGNELIQTYTYEGVEAKRIFKKE
modifications: PEPTIDE (1)...(131) wild-type rat intestinal fatty acid binding protein
As for B9, the “DR/DR AA” value in test [1] stood at 1.01. Also, the “DR/DR LNA” value in test [2] stood at 0.96. The “DR/DR LA” value in test [3] amounted to 1.05. Further, the “DR/DR OA” value in test [4] came out at 0.93. For the same molecule, in test [5], the “DR/DR PA” value stood at 0.54.

B10: 55L1, 72A (protein, listed as Rattus norvegicus)
chain: AFDGTWKVDRNENYEKFMEKMGINVVKRKLGAHDNLKLTITQEGNKFTVKESSNLRNIDVVFELGVDFAYSAADGTELTGTWTMEGNKLVGKFKRVDNGKELIAVREISGNELIQTYTYEGVEAKRIFKKE
modifications: PEPTIDE (1)...(131) wild-type rat intestinal fatty acid binding protein
For the molecule B10, the “DR/DR AA” value in test [1] is on record as 0.86. Moreover, in test [2], the “DR/DR LNA” value was determined as 0.72. The “DR/DR LA” value in test [3] is 0.71. The “DR/DR OA” value in test [4] is 0.82. In addition, in test [5], the “DR/DR PA” value was 0.63.

B11: 55E, 72A (protein, listed as Rattus norvegicus)
chain: AFDGTWKVDRNENYEKFMEKMGINVVKRKLGAHDNLKLTITQEGNKFTVKESSNERNIDVVFELGVDFAYSAADGTELTGTWTMEGNKLVGKFKRVDNGKELIAVREISGNELIQTYTYEGVEAKRIFKKE
modifications: PEPTIDE (1)...(131) wild-type rat intestinal fatty acid binding protein
As to B11, the “DR/DR AA” value in test [1] turned out to be 0.21. Besides, the “DR/DR LNA” value in test [2] is 0.21. Also, the “DR/DR LA” value in test [3] was determined as 0.21. Also, in test [4], the “DR/DR OA” value worked out at 0.21. Also, the “DR/DR PA” value in test [5] is reported as 0.17.

B12: 55N1, 72A (protein, listed as Rattus norvegicus)
chain: AFDGTWKVDRNENYEKFMEKMGINVVKRKLGAHDNLKLTITQEGNKFTVKESSNNRNIDVVFELGVDFAYSAADGTELTGTWTMEGNKLVGKFKRVDNGKELIAVREISGNELIQTYTYEGVEAKRIFKKE
modifications: PEPTIDE (1)...(131) wild-type rat intestinal fatty acid binding protein
In the case of B12, in test [1], the “DR/DR AA” value turned out to be 0.34. In addition, the “DR/DR LNA” value in test [2] is on record as 0.30. For the same molecule, the “DR/DR LA” value in test [3] is given as 0.29. Besides, the “DR/DR OA” value in test [4] is given as 0.27. Further, the “DR/DR PA” value in test [5] came out at 0.22.

B13: 55H2, 72A (protein, listed as Rattus norvegicus)
chain: AFDGTWKVDRNENYEKFMEKMGINVVKRKLGAHDNLKLTITQEGNKFTVKESSNHRNIDVVFELGVDFAYSAADGTELTGTWTMEGNKLVGKFKRVDNGKELIAVREISGNELIQTYTYEGVEAKRIFKKE
modifications: PEPTIDE (1)...(131) wild-type rat intestinal fatty acid binding protein
B13: the “DR/DR AA” value in test [1] is listed as 0.36. In addition, in test [2], the “DR/DR LNA” value came to 0.32. Also, in test [3], the “DR/DR LA” value came to 0.38. Further, the “DR/DR OA” value in test [4] worked out at 0.27. For the same molecule, in test [5], the “DR/DR PA” value was 0.26.

B14: 55S1, 72A (protein, listed as Rattus norvegicus)
chain: AFDGTWKVDRNENYEKFMEKMGINVVKRKLGAHDNLKLTITQEGNKFTVKESSNSRNIDVVFELGVDFAYSAADGTELTGTWTMEGNKLVGKFKRVDNGKELIAVREISGNELIQTYTYEGVEAKRIFKKE
modifications: PEPTIDE (1)...(131) wild-type rat intestinal fatty acid binding protein
In the case of B14, the “DR/DR AA” value in test [1] came to 0.48. For the same molecule, in test [2], the “DR/DR LNA” value is reported as 0.43. Also, the “DR/DR LA” value in test [3] is on record as 0.42. The “DR/DR OA” value in test [4] was 0.41. In test [5], the “DR/DR PA” value is 0.41.

B15: 55A1, 72A (protein, listed as Rattus norvegicus)
chain: AFDGTWKVDRNENYEKFMEKMGINVVKRKLGAHDNLKLTITQEGNKFTVKESSNARNIDVVFELGVDFAYSAADGTELTGTWTMEGNKLVGKFKRVDNGKELIAVREISGNELIQTYTYEGVEAKRIFKKE
modifications: PEPTIDE (1)...(131) wild-type rat intestinal fatty acid binding protein
On to B15, for which, in test [1], the “DR/DR AA” value is listed as 0.33. For the same molecule, the “DR/DR LNA” value in test [2] was 0.36. Moreover, in test [3], the “DR/DR LA” value is 0.34. Further, in test [4], the “DR/DR OA” value is recorded as 0.30. The “DR/DR PA” value in test [5] came out at 0.28.

For the origin of these results see patent publication US20060257938A1, “Method of screening for drugs that block ligand binding to a lipid binding protein” (priority 2005, published 2006).
